“And” between values parts separate entries of the source, which are not always exact repeats. Equal values may be shown once.

Data set [1] concerns the target T1, 336(P4-P3′)562 factor VIIIa mutant.
T1 chain 1: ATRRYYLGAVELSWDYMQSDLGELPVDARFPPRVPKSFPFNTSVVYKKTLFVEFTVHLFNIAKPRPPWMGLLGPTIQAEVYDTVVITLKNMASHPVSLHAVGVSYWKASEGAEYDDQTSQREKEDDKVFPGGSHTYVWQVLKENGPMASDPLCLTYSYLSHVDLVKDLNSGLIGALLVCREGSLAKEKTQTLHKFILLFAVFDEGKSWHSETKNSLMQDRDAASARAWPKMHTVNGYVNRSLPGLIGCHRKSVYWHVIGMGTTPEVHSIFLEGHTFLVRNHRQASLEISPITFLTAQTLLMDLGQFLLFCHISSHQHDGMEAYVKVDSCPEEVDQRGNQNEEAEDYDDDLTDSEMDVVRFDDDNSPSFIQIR
T1 chain 2: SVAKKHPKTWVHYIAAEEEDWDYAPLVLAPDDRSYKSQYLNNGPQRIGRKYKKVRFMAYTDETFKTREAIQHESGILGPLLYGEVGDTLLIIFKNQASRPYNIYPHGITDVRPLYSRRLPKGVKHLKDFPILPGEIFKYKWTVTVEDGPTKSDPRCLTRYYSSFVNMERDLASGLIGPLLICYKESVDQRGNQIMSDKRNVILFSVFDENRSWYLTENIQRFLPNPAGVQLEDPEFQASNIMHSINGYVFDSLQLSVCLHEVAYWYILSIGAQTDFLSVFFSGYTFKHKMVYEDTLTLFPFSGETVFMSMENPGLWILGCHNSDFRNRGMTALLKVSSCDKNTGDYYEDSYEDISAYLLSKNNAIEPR
T1 chain 3: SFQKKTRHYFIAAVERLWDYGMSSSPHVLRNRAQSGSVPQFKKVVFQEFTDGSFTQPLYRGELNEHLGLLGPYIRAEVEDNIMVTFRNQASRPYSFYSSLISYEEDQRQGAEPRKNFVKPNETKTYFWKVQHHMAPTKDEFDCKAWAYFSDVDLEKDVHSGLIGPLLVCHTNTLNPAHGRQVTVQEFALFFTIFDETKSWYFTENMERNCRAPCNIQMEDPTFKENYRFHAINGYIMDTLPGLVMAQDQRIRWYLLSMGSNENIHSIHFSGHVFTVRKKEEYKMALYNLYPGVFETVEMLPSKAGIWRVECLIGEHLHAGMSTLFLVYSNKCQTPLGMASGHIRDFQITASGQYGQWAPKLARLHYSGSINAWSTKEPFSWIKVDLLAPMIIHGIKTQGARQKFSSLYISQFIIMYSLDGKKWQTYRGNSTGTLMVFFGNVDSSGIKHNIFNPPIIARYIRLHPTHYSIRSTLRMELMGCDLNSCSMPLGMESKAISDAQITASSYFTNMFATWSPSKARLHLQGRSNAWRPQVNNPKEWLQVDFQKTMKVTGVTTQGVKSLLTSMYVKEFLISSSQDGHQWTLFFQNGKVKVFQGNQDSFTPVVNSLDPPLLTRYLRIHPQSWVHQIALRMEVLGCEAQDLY

In data set [2] the target is T2, WT factor VIIIa (B-domainless recombinant human factor VIII activated by thrombin).
T2 chain 1: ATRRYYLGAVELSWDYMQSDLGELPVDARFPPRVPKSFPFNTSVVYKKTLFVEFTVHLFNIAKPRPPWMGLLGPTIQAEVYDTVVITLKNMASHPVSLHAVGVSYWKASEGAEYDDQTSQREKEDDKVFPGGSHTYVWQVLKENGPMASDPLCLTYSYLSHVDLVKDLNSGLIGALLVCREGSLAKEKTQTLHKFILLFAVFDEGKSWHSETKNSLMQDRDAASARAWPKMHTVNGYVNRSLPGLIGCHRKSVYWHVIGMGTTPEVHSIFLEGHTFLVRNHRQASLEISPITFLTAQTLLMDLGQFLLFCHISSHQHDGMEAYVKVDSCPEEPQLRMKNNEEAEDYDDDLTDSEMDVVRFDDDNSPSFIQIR
T2 chain 2: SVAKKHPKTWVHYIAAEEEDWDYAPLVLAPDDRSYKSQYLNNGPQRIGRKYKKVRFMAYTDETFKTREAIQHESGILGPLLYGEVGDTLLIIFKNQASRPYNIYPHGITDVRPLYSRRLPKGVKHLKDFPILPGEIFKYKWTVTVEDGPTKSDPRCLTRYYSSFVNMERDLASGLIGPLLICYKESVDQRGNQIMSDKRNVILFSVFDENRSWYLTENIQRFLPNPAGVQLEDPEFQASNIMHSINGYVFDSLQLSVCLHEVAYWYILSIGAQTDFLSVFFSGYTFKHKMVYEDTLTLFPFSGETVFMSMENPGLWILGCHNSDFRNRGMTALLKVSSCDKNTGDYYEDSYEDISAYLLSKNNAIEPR
T2 chain 3: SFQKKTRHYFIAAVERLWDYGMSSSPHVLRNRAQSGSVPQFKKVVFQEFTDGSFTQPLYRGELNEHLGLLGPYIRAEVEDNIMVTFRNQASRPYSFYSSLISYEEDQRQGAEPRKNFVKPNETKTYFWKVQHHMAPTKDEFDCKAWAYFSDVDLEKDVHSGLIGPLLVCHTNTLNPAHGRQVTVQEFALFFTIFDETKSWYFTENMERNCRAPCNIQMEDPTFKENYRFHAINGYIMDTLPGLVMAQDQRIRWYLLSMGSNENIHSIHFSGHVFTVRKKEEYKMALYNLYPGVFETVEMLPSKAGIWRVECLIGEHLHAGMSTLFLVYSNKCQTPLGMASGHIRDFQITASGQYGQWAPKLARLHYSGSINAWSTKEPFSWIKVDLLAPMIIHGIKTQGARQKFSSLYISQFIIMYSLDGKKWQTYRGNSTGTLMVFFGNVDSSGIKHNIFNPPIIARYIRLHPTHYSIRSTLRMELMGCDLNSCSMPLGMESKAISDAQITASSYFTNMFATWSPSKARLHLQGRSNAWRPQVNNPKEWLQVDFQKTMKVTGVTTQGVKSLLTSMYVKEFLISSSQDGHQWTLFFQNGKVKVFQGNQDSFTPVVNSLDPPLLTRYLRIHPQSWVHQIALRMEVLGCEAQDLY

Data set [3] concerns the target T3, 336(P1′-P3′)562 factor VIIIa mutant.
T3 chain 1: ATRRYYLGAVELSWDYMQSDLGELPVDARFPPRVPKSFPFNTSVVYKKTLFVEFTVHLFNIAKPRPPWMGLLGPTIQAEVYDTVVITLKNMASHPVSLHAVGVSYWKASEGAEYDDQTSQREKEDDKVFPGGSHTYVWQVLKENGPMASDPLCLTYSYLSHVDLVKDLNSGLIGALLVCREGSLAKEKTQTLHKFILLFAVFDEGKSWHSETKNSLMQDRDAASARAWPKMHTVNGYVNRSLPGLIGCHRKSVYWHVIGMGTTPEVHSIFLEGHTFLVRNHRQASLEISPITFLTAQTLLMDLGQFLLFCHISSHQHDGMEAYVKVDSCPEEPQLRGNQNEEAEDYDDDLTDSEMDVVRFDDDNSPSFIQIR
T3 chain 2: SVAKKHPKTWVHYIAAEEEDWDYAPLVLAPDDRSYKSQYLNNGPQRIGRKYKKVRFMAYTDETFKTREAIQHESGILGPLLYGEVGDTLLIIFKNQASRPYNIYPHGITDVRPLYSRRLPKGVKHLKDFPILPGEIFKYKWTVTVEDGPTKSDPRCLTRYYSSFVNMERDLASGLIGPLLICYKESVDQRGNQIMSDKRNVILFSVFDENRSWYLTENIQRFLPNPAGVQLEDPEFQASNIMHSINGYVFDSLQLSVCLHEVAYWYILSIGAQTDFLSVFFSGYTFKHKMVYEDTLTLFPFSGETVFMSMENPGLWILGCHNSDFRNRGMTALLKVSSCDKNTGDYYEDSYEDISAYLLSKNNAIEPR
T3 chain 3: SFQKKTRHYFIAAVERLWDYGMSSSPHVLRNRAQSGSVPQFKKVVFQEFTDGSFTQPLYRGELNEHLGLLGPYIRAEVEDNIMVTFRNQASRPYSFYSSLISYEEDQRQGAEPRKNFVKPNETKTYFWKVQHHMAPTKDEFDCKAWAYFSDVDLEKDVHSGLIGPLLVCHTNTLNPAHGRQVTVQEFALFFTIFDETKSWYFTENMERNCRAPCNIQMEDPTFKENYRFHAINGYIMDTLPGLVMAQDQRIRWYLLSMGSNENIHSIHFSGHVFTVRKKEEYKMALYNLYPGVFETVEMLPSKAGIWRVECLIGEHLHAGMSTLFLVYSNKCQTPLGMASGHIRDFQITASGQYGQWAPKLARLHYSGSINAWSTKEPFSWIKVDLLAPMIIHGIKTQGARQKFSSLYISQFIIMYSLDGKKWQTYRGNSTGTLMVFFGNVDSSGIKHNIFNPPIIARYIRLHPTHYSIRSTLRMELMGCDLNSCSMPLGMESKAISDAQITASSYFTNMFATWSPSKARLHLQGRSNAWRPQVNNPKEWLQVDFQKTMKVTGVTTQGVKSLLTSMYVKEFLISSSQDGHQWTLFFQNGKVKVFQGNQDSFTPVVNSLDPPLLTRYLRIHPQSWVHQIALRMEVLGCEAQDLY

B1: human activated protein C (protein)
chain 1: ANSFLEELRHSSLERECIEEICDFEEAKEIFQNVDDTLAFWSKHVDGDQCLVLPLEHPCASLCCGHGTCIDGIGSFSCDCRSGWEGRFCQREVSFLNCSLDNGGCTHYCLEEVGWRRCSCAPGYKLGDDLLQCHPAVKFPCGRPWKRMEKKRSHL
chain 2: LIDGKMTRRGDSPWQVVLLDSKKKLACGAVLIHPSWVLTAAHCMDESKKLLVRLGEYDLRRWEKWELDLDIKEVFVHPNYSKSTTDNDIALLHLAQPATLSQTIVPICLPDSGLAERELNQAGQETLVTGWGYHSSREKEAKRNRTFVLNFIKIPVVPHNECSEVMSNMVSENMLCAGILGDRQDACEGDSGGPMVASFHGTWFLVGLVSWGEGCGLLHNYGVYTKVSRYLDWIHGHIRDKEAPQKSWAP
On to B1, for which, in data set [1], the A2 Cleavage (nM A2/min/nM APC) (nM A2/min/nM APC) was 0.05 and the “fold reduction of A1 subunit cleavage rate relative to WT” value is “reduced by ˜100-fold relative to WT”. In data set [2], the A1 Cleavage (nM A1/min/nM APC) (nM A1/min/nM APC) was 8.5 and 9.5; the A2 Cleavage (nM A2/min/nM APC) (nM A2/min/nM APC) is 0.5 and 0.2. In addition, in data set [3], the A1 Cleavage (nM A1/min/nM APC) (nM A1/min/nM APC) turned out to be 1.1; the A2 Cleavage (nM A2/min/nM APC) (nM A2/min/nM APC) was determined as 0.3; the “fold reduction of cleavage rate at the A1 site compared with WT” value is “reduced ˜16 and ˜9-fold, respectively, as compared with the WT protein”.
